Patent publication EP4089108A1 (Cytoki Pharma ApS, dated 2022)

T1: human IL-22 receptor (human IL-22Ra and human IL-10Rb) expressed on BHK reporter cells (human, UniProt Q8N6P7 16-574; Q08334 20-325)
T1 sequence (looked up) 1: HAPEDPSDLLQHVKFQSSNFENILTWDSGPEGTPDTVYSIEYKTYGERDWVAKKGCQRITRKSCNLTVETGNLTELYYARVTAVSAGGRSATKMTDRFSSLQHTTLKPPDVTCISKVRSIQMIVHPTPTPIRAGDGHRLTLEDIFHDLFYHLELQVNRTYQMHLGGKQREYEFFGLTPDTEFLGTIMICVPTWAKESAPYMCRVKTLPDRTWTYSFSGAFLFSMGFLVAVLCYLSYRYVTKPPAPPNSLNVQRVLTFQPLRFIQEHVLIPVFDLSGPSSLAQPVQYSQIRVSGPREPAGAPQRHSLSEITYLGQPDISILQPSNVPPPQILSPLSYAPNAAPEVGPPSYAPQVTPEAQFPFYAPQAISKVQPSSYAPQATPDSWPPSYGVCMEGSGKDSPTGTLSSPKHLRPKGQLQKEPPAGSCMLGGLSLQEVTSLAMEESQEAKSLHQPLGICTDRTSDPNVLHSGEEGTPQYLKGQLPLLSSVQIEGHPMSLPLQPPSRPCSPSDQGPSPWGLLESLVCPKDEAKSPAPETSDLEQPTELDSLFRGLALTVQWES
T1 sequence (looked up) 2: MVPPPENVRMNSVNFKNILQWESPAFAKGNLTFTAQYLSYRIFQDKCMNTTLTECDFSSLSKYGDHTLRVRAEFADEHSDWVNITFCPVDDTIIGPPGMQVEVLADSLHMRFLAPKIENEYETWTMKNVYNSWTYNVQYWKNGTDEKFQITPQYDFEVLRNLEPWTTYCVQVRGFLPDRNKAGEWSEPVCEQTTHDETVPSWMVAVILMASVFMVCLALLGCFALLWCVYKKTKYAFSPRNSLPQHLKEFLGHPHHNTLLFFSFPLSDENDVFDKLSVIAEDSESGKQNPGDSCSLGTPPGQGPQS

B1: native mature human IL-22 (ligand)
chain: APISSHCRLDKSNFQQPYITNRTFMLAKEASLADNNTDVRLIGEKLFHGVSMSERCYLMKQVLNFTLEEVLFPQSDRFQPYMQEVVPFLARLSNRLSTCHIEGDDLHIQRNVQKLKDTVKKLGESGEIKAIGELDLLFMSLRNACI
B2: Derivative 1 (ligand)
chain: GPGCPISSHCRLDKSNFQQPYITNRTFMLAKEASLADNNTDVRLIGEKLFHGVSMSERCYLMKQVLNFTLEEVLFPQSDRFQPYMQEVVPFLARLSNRLSTCHIEGDDLHIQRNVQKLKDTVKKLGESGEIKAIGELDLLFMSLRNACI
modifications: C16 monoacid covalently attached through linker γGlu-OEG-OEG-εLys-αAc to Cys at position 1 of hIL-22 numbering (attachment site 1C; position 4 of SEQ ID NO. 20)

Molecular target: T1, human IL-22 receptor (human IL-22Ra and …)
Experiment: cell-based or functional assay

Binder | EC50, BHK cell reporter gene assay (luciferase with STAT3-induced promoter)
B1 | 0.07 nM
B2 | 0.06 nM
